The source of these data is patent US7897573B2, “Selective VPAC2 receptor peptide agonists” (priority 2005, dated 2011).

The nature of data set [1]: Pharmacokinetic profiles of PEGylated peptides in Fisher 344 rats. Particulars: 100 μg agonist/kg, plasma RIA, mean N = 3. In kind it is in vivo, rat. The method, boiled down:
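Healthy rats (n=3/group) received 100 μg agonist/kg in PBS, dose based on peptide content; route not given. Plasma sampled 3–168 h post-dose, peptide quantified by N-terminal-directed RIA, PK parameters derived by model-independent analysis.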

In data set [2] the target is T1, Human VPAC1 Receptor (Homo sapiens, UniProt P32241).
T1 construct: expressed in transfected cells
T1 sequence (P32241 31-457): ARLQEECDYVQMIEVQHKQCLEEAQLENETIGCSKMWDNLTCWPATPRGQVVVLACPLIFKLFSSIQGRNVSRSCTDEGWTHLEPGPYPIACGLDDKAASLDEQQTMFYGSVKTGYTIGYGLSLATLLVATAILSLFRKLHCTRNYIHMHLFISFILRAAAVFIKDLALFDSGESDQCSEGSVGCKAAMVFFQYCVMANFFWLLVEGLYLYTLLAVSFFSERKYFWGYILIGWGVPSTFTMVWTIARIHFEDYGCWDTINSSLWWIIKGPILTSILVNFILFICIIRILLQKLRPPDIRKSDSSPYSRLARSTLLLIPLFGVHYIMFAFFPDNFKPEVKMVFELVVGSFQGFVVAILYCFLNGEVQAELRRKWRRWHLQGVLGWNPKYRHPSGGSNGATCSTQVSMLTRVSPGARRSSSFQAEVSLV
In words: Filter binding assay, 125I-labeled VIP, membranes of cells transiently transfected with human VPAC1. As to conditions: 125I-labeled VIP tracer.

The target of data set [3] is T2, Human PAC1 Receptor (Homo sapiens, UniProt P41586).
T2 construct: expressed in transfected cells
T2 sequence (P41586 21-468): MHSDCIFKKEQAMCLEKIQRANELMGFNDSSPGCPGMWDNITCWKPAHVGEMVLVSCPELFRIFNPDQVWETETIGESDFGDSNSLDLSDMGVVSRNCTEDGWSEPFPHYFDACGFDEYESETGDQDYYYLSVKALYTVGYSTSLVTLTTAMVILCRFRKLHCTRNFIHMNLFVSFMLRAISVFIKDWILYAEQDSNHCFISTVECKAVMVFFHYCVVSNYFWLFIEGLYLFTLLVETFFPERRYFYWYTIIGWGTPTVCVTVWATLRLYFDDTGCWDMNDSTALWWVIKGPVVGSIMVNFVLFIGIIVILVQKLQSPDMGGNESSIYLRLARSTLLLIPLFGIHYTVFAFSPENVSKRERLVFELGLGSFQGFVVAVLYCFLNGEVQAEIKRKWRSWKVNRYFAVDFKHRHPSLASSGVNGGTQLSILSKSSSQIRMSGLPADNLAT
The data set can be described thus: Filter binding assay, 125I-labeled PACAP-27, membranes of cells transiently transfected with human PAC1. As to conditions: 125I-labeled PACAP-27 tracer. The protocol:
For this assay, the solutions and equipment include:
Presoak solution: 0.5% Polyethyleneamine in Aqua dest
Buffer for flushing filter plates: 25 mM HEPES pH 7.4
Blocking buffer: 25 mM HEPES pH 7.4; 0.2% protease free BSA
Assay buffer: 25 mM HEPES pH 7.4; 0.5% protease free BSA
Dilution and assay plate: PS-Microplate, U form
Filtration Plate Multiscreen FB Opaque Plate; […] Type B Glasfiber filter
In order to prepare the filter plates, the presoak solution is aspirated by vacuum filtration. The plates are flushed twice with 200 μL flush buffer. 200 μL blocking buffer is added to the filter plate. The filter plate is then incubated with 200 μL presoak solution for 1 hour at room temperature.
The assay plate is filled with 25 μL assay buffer, 25 μL membranes (2.5 μg) suspended in assay buffer, 25 μL agonist in assay buffer, and 25 μL tracer (about 40000 cpm) in assay buffer. The filled plate is incubated for 1 hour with shaking.
The transfer from assay plate to filter plate is conducted. The blocking buffer is aspirated by vacuum filtration and washed two times with flush buffer. 90 μL is transferred from the assay plate to the filter plate. The 90 μL transferred from assay plate is aspirated and washed three times with 200 μL flush buffer. The plastic support is removed. It is dried for 1 hour at 60° C. 30 μL Microscint is added. The count is performed.

Data set [4] in a line: Rat serum stability study (DiscoveRx cAMP read-out on CHO-VPAC2 cells). Particulars: EC50, 4° C./EC50, 37° C., values >100% may represent release of intact peptide from the PEG conjugate; for 24 h stab (%): 24 h in rat serum at 37° C.; for 72 h stab (%): 72 h in rat serum at 37° C.
The test system of data set [5] is Normal Wistar rats. The data set can be described thus: Intravenous glucose tolerance test (IVGTT). In kind it is in vivo, rat. As to conditions: for insulin response to the i.v. glucose challenge: FIG. 1, animals treated 24 h prior to the glucose injection, versus vehicle-treated animals. How it is done:
Intravenous glucose tolerance test (IVGTT): Normal Wistar rats are fasted overnight and are anesthetized prior to the experiment. A blood sampling catheter is inserted into the rats. The agonist is given subcutaneously, normally 24 h prior to the glucose challenge. Blood samples are taken from the carotid artery. A blood sample is drawn immediately prior to the injection of glucose along with the agonist. After the initial blood sample, glucose mixed is injected intravenously (i.v.). A glucose challenge of 0.5 g/kg body weight is given, injecting a total of 1.5 mL vehicle with glucose and agonist per kg body weight. The peptide concentrations are varied to produce the desired dose in μg/kg. Blood samples are drawn at 2, 4, 6 and 10 minutes after giving glucose. The control group of animals receives the same vehicle along with glucose, but with no agonist added. In some instances, 20 and 30 minute post-glucose blood samples were drawn. Aprotinin is added to the blood sample (250-500 kIU/ml blood). The plasma is then analyzed for glucose and insulin using standard methodologies.
The assay uses a formulated and calibrated peptide stock in PBS. Normally, this stock is a prediluted 100 μM stock. However, a more concentrated stock with approximately 1 mg agonist per mL is used. The specific concentration is always known. Variability in the maximal response is mostly due to variability in the vehicle dose.

Where [6] appears, read: AUC insulin, 0-10 min after glucose, 24 h between glucose & compound, Wistar rats.

Where no end group is shown, it is not given here.

In general, Cmax refers to the maximum level reached in the sampled fluid or tissue. One may read the Tmax as the time at which the peak concentration occurs. A word on the IC50: it is the midpoint of a concentration-inhibition curve. A higher IC50 goes with weaker potency in that assay. On to “C6-HSDAVFTEQY(OMe)TOrnLRAibQLAAbuAibOrnYAibQAibIOrnOrnGGPSSGAPPPC(PEG20K)C(PEG20K)-NH2 (HSDAVFTEQYTXLRXQLAXXXYXQXIXXGGPSSGAPPPCC; C6 acyl, two PEG20K, C-terminal amide; Synthetic sequence PEGylated VPAC2 receptor agonist) [Agonist P525]”, for which, in data set [1], the AUC0-last is 4740 ng·h/mL, the Cl/F is 0.333 mL/min/kg, the Cmax was 133 ng/mL and the Tmax came to 16 h. In data set [1], the T½ amounted to 22 h. In addition, the IC50 in data set [2] was > 25000 nM. For the same substance, in data set [3], the IC50 was > 25000 nM. In data set [4], the “24 h stab (%)” value is on record as 298% and the “72 h stab (%)” value was 353%. In addition, in data set [5] (setting [6]), the “% increase AUC: Dose = 0.1 mg/kg” value turned out to be 72% and the “% increase AUC: Dose = 0.3 mg/kg” value was determined as 208%. Also, the “insulin response to the i.v. glucose challenge” value in data set [5] is reported as “enhancement of the insulin response”.
With “C6-HSDAVFTEQY(OMe)TOrnLRAibQLAAbuAibOrnyAibQSIOrnOrnGGPSSGAPPPC(PEG30K)C(PEG30K)-NH2 (HSDAVFTEQYTXLRXQLAXXXYXQSIXXGGPSSGAPPPCC; not fully specified (some residues, N-terminus, C-terminus); printed as C6-HSDAVFTEQY(OMe)TOrnLRAibQLAAbuAibOrnyAibQSIOrnOrnGGPSSGAPPPC(PEG30K)C(PEG30K)-NH2; cysteine pairing not given here) [Agonist P602]”, the IC50 in data set [2] and in data set [3] was > 25000 nM in each case. Moreover, in data set [4], the “24 h stab (%)” value is 573%. Moreover, the “% increase AUC: Dose = 0.09 mg/kg” value in data set [5] (AUC insulin, 0-10 min after glucose, 0.09 mg/kg, 24 h between glucose & compound, Wistar rats) was 73%. For the same substance, the “% increase AUC: Dose = 0.3 mg/kg” value in data set [5] (setting [6]) is 198%.
For the substance “C6-HSDAVFTEQY(OMe)TOrnLRAibQVAAAibOrnYLQSIOrnC(PEG20K)OrnGGPSSGAPPPC(PEG20K)-NH2 (HSDAVFTEQYTXLRXQVAAXXYLQSIXCXGGPSSGAPPPC; C6 acyl, two PEG20K, C-terminal amide; Synthetic sequence PEGylated VPAC2 receptor agonist) [Agonist P505]”, in data set [1], the AUC0-last is 7006 ng·h/mL, the Cl/F amounted to 0.217 mL/min/kg, the Cmax is listed as 160 ng/mL and the Tmax is given as 12 h. Besides, the T½ in data set [1] worked out at 22 h. Moreover, the IC50 in data set [2] is > 25000 nM. Further, in data set [3], the IC50 is > 25000 nM. Besides, in data set [4], the “24 h stab (%)” value turned out to be 133% and the “72 h stab (%)” value was found to be 161%. Further, in data set [5] (setting [6]), the “% increase AUC: Dose = 0.1 mg/kg” value worked out at 12% and the “% increase AUC: Dose = 0.3 mg/kg” value is listed as 74%. Moreover, the “insulin response to the i.v. glucose challenge” value in data set [5] is “enhancement of the insulin response”.
For “C6-HSDAVFTEQY(OMe)TOrnLRAibQVAAbuAibOrnYLQAibIOrnOrnGGPSSGAPPPC(PEG40K)-NH2 (HSDAVFTEQYTXLRXQVAXXXYLQXIXXGGPSSGAPPPC; C6 acyl, PEG40K on Cys, C-terminal amide; Synthetic sequence PEGylated VPAC2 receptor agonist) [Agonist P511]”, in data set [1], the AUC0-last is 3067 ng·h/mL, the Cmax worked out at 100 ng/mL and the Tmax was 16 h. In data set [2], the IC50 is > 25000 nM. Moreover, the IC50 in data set [3] was > 25000 nM. Also, in data set [5] (setting [6]), the “% increase AUC: Dose = 0.1 mg/kg” value is reported as 38% and the “% increase AUC: Dose = 0.3 mg/kg” value amounted to 59%.
